The record followed here is patent US20190144863, “MODULATING THE CELLULAR STRESS RESPONSE” (The General Hospital Corporation, published 2019).

Data set [1] addresses T1, EZH2 (UniProt Q61188 Q61188:1-746). As to the kind of experiment: FP filter; double-filter binding; 50 mM Tris pH 8.0, 100 mM NaCl, 5 mM MgCl2, 50 ng/ul yeast tRNA, 30 C. The note with it: folded; critical region nt 81-131.
Data set [2] addresses T1, EZH2. As to the kind of experiment: filter; double-filter binding, same buffer with yeast tRNA; extremely low affinity. The note with it: label: radiolabelled (cpm).

T1 sequence (Q61188 whole entry, one chain of several): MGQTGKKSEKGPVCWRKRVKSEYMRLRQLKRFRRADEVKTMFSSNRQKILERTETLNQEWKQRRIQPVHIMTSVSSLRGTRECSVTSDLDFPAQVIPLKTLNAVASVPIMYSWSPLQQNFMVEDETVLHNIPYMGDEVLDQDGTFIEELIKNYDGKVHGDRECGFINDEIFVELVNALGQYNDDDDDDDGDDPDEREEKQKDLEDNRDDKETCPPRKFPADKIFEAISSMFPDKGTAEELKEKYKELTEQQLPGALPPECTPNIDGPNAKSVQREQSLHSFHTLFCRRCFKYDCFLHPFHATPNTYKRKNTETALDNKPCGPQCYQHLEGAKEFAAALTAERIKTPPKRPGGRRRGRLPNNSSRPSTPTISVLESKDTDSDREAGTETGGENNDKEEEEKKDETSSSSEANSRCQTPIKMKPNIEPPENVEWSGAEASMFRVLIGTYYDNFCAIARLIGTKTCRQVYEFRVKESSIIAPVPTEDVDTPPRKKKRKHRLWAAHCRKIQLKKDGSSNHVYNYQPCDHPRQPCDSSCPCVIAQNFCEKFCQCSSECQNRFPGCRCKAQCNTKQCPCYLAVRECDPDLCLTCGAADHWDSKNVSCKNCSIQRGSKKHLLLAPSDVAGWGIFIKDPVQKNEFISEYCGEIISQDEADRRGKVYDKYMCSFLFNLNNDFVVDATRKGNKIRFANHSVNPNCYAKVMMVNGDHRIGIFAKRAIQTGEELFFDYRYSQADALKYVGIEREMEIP

B1: B2 RNA full length (ssRNA)
RNA: GGGGCUGGUGAGAUGGCUCAGUGGGUAAGAGCACCCGACUGCUCUUCCGAAGGUCCGGAGUUCAAAUCCCAGCAACCACAUGGUGGCUCACAACCAUCCGUAACGAGAUCUGACUCCCUCUUCUGGAGUGUCUGAAGACAGCUACAGUGUACUUACAUAUAAUAAAUAAAUAAAUCUUUAAAAAAAAA
With B1, in the data set with EZH2 [1], the Kd amounted to 0.423 µM.

B2: B2 RNA domain I+II (ssRNA)
RNA: GGGGCUGGUGAGAUGGCUCAGUGGGUAAGAGCACCCGACUGCUCUUCCGAAGGUCCGGAGUUCAAAUCCCAGCAACCACAUGGUGGCUCACAACCAUCCGUAACG
modifications: [none]
B2 yielded a Kd with EZH2 [2] greater than 3 µM.

B3: B2 RNA domain I (ssRNA)
RNA: GGGGCUGGUGAGAUGGCUCAGUGGGUAAGAGCACCCGACUGCUCUUCCGAAGGUCCGGAGUUCAAAUCCCAG
modifications: [none]
With B3, the equilibrium dissociation constant (Kd) with EZH2 [2] is greater than 3 µM.
Same read-out and setting: with CGUAACGAGAUCUGACUCCCUCUUCUGGAGUGUCUGAAGACA (ssRNA, [none]) [B2 RNA domain III] the figure was greater than 3 µM.
